# Measured values published in patent publication CN110028581A.
# Experiments:
# [1] = target: 微囊藻毒素抗体IgG in ascites (腹水)
# [2] = target: 微囊藻毒素抗体Fab片段 (microcystin antibody Fab fragment)
# [3] = target: 微囊藻毒素抗体Fab片段 (microcystin antibody Fab fragment); test: ic-ELISA: free MC-LR (1000 ng/mL dilution) against coated MC-LR-OVA for the Fab
substance,measurement,setting,value
微囊藻毒素-LR (microcystin-LR) (peptide),抑制率 (inhibition rate),[1],91%
same,IC20,[2],0.15 ng/mL
same,IC50,[2],0.56 ng/mL
same,IC80,[2],2.1 ng/mL
same,抑制率 (inhibition rate),[3],99%
